According to patent US5532348:

Experiments:
[1] = target: HPV16 E6, wheat germ extract translated (human papillomavirus type 16) (UniProt P03126)
[2] = target: HPV16 E6, wheat germ extract translated (human papillomavirus type 16) (UniProt P03126); remark: listed apart in the source

Row | Substance | molar excess for fifty percent binding competition [1] | percent of the input 35S-labeled HPV16 E6 bound [2] [%]
1 | synthetic peptide consisting of the 18 mer region, amino acids 391 to 408 of SEQ ID NO:1 (SEQ ID NO:3) | 5000 | –
2 | GST-E6-AP fusion protein with amino acids 371 to 440 of SEQ ID NO:1 (SEQ ID NO:2) | – | 50
3 | GST-E6-AP fusion protein, amino-terminal portion (amino acids 213 to 489 of SEQ ID NO:1) | – | 50
